Test results as given in US20240067728A1 (BIO THERA SOLUTIONS, published 2024).
Where two headings read alike, the source gives them in different places.

Experiments:
[1] = molecular target: T1, CD47-His antigen (human, UniProt Q08722 19-139); assay: SPR (Biacore), method of Example 5, 1:1 Binding fit
T1 construct: Human CD47 ECD with C-terminal 8xHIS tag, expressed in HEK293F; also called hCD47-His; human CD47-His

[2] = molecular target: T2, CD47 on human T lymphocyte leukemia Jurkat cells (human, UniProt Q08722 19-323); assay: FACS on Jurkat cells, PE-labeled anti-human Fc secondary antibody; MFI(Mean) against Con(nM)
T2 construct: whole, on cells; also called tumor cells
Method: By using the same method as described above, test samples of the exemplary bispecific antibodies and human T lymphocyte leukemia Jurkat cells were prepared.

[3] = molecular target: T3, human CD47 on CD47-CHO cells (human, UniProt Q08722 19-323); assay: FACS on CD47-CHO cells, PE-labeled anti-human Fc secondary antibody; MFI(Mean) against Con(nM)
T3 construct: whole, on cells; also called CHO cells overexpressing human CD47; CD47 expressed on the cell surface
Method: (§1) The binding of the exemplary anti-PD-L1/CD47 bispecific antibodies of the present invention to CHO cells overexpressing human PD-L1 or human CD47 was measured by flow cytometry. Briefly, human PD-L1 or human CD47 cDNA was inserted into an expression vector and transfected into Chinese hamster ovary cancer cells (CHO, Invitrogen), resulting in CHO cells overexpressing human PD-L1 or human CD47 (PD-L1-CHO cells or CD47-CHO cells).

[4] = molecular target: T3, human CD47 on CD47-CHO cells; assay: as above; remark: listed apart in the source
Method: as §1

[5] = molecular target: T4, human PD-L1 on PD-L1-CHO cells (human, UniProt Q9NZQ7 19-290); assay: FACS on PD-L1-CHO cells, PE-labeled anti-human Fc secondary antibody; MFI(Mean) against Con(nM)
T4 construct: whole, on cells; also called CHO cells overexpressing human PD-L1; PD-L1 expressed on the cell surface
Method: as §1

[6] = molecular target: T5, CD47 on human red blood cells (human, UniProt Q08722 19-323); assay: FACS on human red blood cells, PE-labeled anti-human Fc secondary antibody; MFI(Mean) against Con(nM)
T5 construct: whole, on cells; also called RBC

T4 sequence (Q9NZQ7 19-290): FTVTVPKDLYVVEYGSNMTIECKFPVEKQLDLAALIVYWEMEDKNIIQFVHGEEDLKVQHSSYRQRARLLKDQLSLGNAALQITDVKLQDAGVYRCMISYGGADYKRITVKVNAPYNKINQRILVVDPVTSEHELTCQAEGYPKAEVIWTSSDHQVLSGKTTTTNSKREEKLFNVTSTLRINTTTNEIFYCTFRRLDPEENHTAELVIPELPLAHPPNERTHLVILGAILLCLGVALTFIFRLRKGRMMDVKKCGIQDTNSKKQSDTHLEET

- Kd [1]: 3.29 nM
- EC50 (read off the curve) [2]: ~0.7 nM
- EC50 (read off the curve) [3]: ~1 nM
- EC50 (read off the curve) [4]: ~0.9 nM
- binding result [5]: no binding (tested: 10 nM)
- EC50 (read off the curve) [6]: ~3 nM
B1: 47-R2-4 (antibody, human IgG1, kappa, V domains shown)
VH: QVQLQESGPGLVKPSETLSLTCTVSGGSLDNYYWSWIRQPPGKGLEWIGYIYYSGNTNYNPSLKSRVTISVDTSKNQFSLKLSSVTAADTAVYYCARGGRFLERYWGQGTLVTVSS
VL: EIVLTQSPSSLSASVGDRVTITCLASQTIGTWLAWYQQKPGKSPQLLIYAASTLQSGVPSRFSGSGSGTDFTLTISSLQPEDVATYYCQQYYSTPRTFGQGTKVEIKR
notes: Anti-CD47 monoclonal antibody, L12-6-VH with light chain R2-4; also called parental anti-CD47 antibody 47-R2-4
